Laboratory results: US20140248684A1, “COMPOSITIONS AND METHODS FOR THE PRODUCTION AND USE OF HUMAN CHOLINESTERASES” (priority 2011, published 2014)
Entries after “also recorded” stand apart in the source; their conditions may differ. Read-outs that look alike come from different tables or passages of the source.

Experiments:
mice = mice (Lewis, 1996); cited from earlier work
guinea pigs = test: Succinylcholine lethality in guinea pigs; assay type: in vivo; details: intravenous
Excerpt: To further understand the effect and kinetics of BChE-mediated SC detoxification using continuous vital sign monitoring, the inventors moved to a larger rodent model of SC toxicity. […] At no point following loss of measurable pulse and venous oxygen saturation did these signs return in animals receiving SC 0.9% saline.

[1] = previously published (Lockridge, 1990), thioester analog assay, cited from earlier work
[2] = reported value (Sun et al., 2002); read-out: KM, cocaine hydrolysis; cited from earlier work
SC-induced apnea [3] = test: Reversal of succinylcholine-induced apnea in mice; assay type: in vivo, Male FVB/N mice (Mus musculus)
Experimental: Mouse experiments were conducted as follows. Male FVB/N mice (Mus musculus, 8-12 weeks old) were anesthetized by injection of ketamine/xylazine/acepromazide cocktail at the dose of 0.05 mL per 25 g of total body weight (concentrations were, respectively 21 mg/mL, 2.4 mg/mL, and 0.3 mg/mL). Anesthetized mice were assessed for respiratory rate by counting respirations for 30 seconds using a Littman model 3000 electronic stethoscope placed on the mouse left mid axillary line and extrapolating the per minute rate. Mice were then injected intravenously (tail vein) with 1 mg/kg succinylcholine (time 0 min). At time+3 min mice were injected with pBChE (0.6 mg/kg, ˜15 Upper animal) in 0.9% saline (or 0.9% saline vehicle control) and respiratory rate was obtained as above at the indicated time points. At time+15 minutes all surviving mice were euthanized by CO2 asphyxiation and subsequent cervical dislocation. At no time during the experiment did the mice receive any other therapy including, but not limited to, airway protection/management, artificial ventilations, compressions, or any pharmacological assistance.
Statistical analyses were carried out using the GraphPad Prism software. Log-rank (Mantel-Cox) test was used to determine significance of the difference between survival curves.

[4] = Succinylcholine hydrolase activity assay (96-well, choline oxidase/peroxidase); assay type: biochemical
Experimental: Assay of butyrylcholine hydrolysis followed the method of Ellman as described in (Geyer et al., 2010). Succinylcholine hydrolase activity was monitored by the method of George and co-workers (George et al., 1988) with modifications to fit a 96-well plate format. Briefly, our standard succinylcholine-hydrolysis buffer contained 100 mM NaH2PO4/Na2HPO4 buffer pH 7.5, 0.77 mM phenol, 0.15 mM 4-aminoantipyrine, 1 U/mL choline oxidase, and 1.2 U/mL horse raddish peroxidase type I. Appropriate volumes of 10× stock solutions (in 100 mM NaH2PO4/Na2HPO4 buffer pH 7.5) were pre-mixed and dispensed at 160 μL aliquotes onto 96-well plates followed by addition of the substrate succinylcholine chloride (20 μl, final concentrations as indicated). Reactions were started by addition of pBChE (4.74 nM) to yield a final well volume of 200 μl. Hydrolysis was monitored by recording absorbance changes at 500 nm. Self hydrolysis rates were measured on samples that contained no enzyme and were subtracted from the enzymatically catalyzed reaction rates. A choline standard curve was similarly created by using the same assay except that choline chloride replaced succinylcholine (final concentration range of 10-100 μM).
Kinetic analysis was done according to Radic et al. (Radic et al., 1993) as follows. Initial enzyme velocity, V0, was plotted as a function of substrate concentration and the results were fitted by nonlinear regression using GraphPad Prism to the following equation: […]
where [SC] is the concentration of SC, Vmax is maximal velocity, KM is the Michaelis-Menten constant, KSS is the dissociation constant of substrate from the enzyme's peripheral binding site, and b a factor that reflect the efficiency of hydrolysis of the substrate in the presence of another substrate molecule bound at the peripheral site (with substrate activation when b>1).

SC-induced apnea [5] = test: Reversal of succinylcholine-induced apnea in guinea pigs; assay type: in vivo, Male Hartley guinea pigs (Cavia porcellus)
Experimental: Guinea pig experiments were conducted as follows. Male Hartley guinea pigs (Cavia porcellus, 8 weeks old) were anesthetized with 90 mg/kg ketamine and 10 mg/kg xylazine. Once anesthetized, baseline heart rate (beats per minute) and Sp02 (%) were obtained using a Surgivet Plus Veterinary Anesthesia and Monitoring Module, model #V3404. Guinea pigs were then injected intravenously (leg vein) with 0.334 mg/kg SC (time 0). Heart rate and Sp02 were obtained every minute throughout the course of the experiment. At time+1 min, groups of three apneic guinea pigs were injected with either pBChE (0.19 mg/kg, ˜48 Upper animal) in 0.9% saline (or 0.9% saline vehicle control). At time+15 minutes all surviving guinea pigs were euthanized by CO2 asphyxiation and subsequent cervical dislocation. As above, guinea pigs received no additional care or therapy during experimentation.
Statistical significance of differences between means of heart rate and Sp02 was tested using 1-way analysis of variance (ANOVA) followed by Bonferronits Multiple Comparison Test.

[6] = 0.334 mg/kg SC i.v., 48 U BChE at 1 min, 3 min following SC injection

Question: With C[N+](C)(C)CCOC(=O)CCC(=O)OCC[N+](C)(C)C [SC, succinylcholine] as the molecule, how does the LD50 (mice) read?
Answer: 0.28 mg/kg

Question: And the LD100 (guinea pigs)?
Answer: 0.334 mg/kg

B1: WT BChE (protein, UniProt P06276 29-602, looked up)
Cholinesterase: EDDIIIATKNGKVRGMNLTVFGGTVTAFLGIPYAQPPLGRLRFKKPQSLTKWSDIWNATKYANSCCQNIDQSFPGFHGSEMWNPNTDLSEDCLYLNVWIPAPKPKNATVLIWIYGGGFQTGTSSLHVYDGKFLARVERVIVVSMNYRVGALGFLALPGNPEAPGNMGLFDQQLALQWVQKNIAAFGGNPKSVTLFGESAGAASVSLHLLSPGSHSLFTRAILQSGSFNAPWAVTSLYEARNRTLNLAKLTGCSRENETEIIKCLRNKDPQEILLNEAFVVPYGTPLSVNFGPTVDGDFLTDMPDILLELGQFKKTQILVGVNKDEGTAFLVYGAPGFSKDNNSIITRKEFQEGLKIFFPGVSEFGKESILFHYTDWVDDQRPENYREALGDVVGDYNFICPALEFTKKFSEWGNNAFFYYFEHRSSKLPWPEWMGVMHGYEIEFVFGLPLERRDNYTKAEEILSRSIVKRWANFAKYGNPNETQNNSTSWPVFKSTEQKYLTLNTESTRIMTKLRAQQCRFWTSFFPKVLEMTGNIDEAEWEWKAGFHRWNNYMMDWKNQFNDYTSKKESCVGL
Question: With B1 as the molecule, how does the “Kcat, succinylcholine” value [1] read?
Answer: 10 s⁻¹

Question: What about the Km ([1]; read-out: KM, succinylcholine) of the same molecule?
Answer: 35 µM

Question: And the Km [2]?
Answer: 4.5 µM

B2: pBChE (protein, UniProt P06276 29-602, looked up)
Cholinesterase: EDDIIIATKNGKVRGMNLTVFGGTVTAFLGIPYAQPPLGRLRFKKPQSLTKWSDIWNATKYANSCCQNIDQSFPGFHGSEMWNPNTDLSEDCLYLNVWIPAPKPKNATVLIWIYGGGFQTGTSSLHVYDGKFLARVERVIVVSMNYRVGALGFLALPGNPEAPGNMGLFDQQLALQWVQKNIAAFGGNPKSVTLFGESAGAASVSLHLLSPGSHSLFTRAILQSGSFNAPWAVTSLYEARNRTLNLAKLTGCSRENETEIIKCLRNKDPQEILLNEAFVVPYGTPLSVNFGPTVDGDFLTDMPDILLELGQFKKTQILVGVNKDEGTAFLVYGAPGFSKDNNSIITRKEFQEGLKIFFPGVSEFGKESILFHYTDWVDDQRPENYREALGDVVGDYNFICPALEFTKKFSEWGNNAFFYYFEHRSSKLPWPEWMGVMHGYEIEFVFGLPLERRDNYTKAEEILSRSIVKRWANFAKYGNPNETQNNSTSWPVFKSTEQKYLTLNTESTRIMTKLRAQQCRFWTSFFPKVLEMTGNIDEAEWEWKAGFHRWNNYMMDWKNQFNDYTSKKESCVGL
Question: Which survival (SC-induced apnea [3]; 1 mg/kg SC i.v., 15 U (0.6 mg/kg) pBChE at 3 min, three mice) does the source give for B2 here?
Answer: survived; also recorded: survival of all pBChE-treated mice

Question: What about the “protection from SC-induced apnea” value (SC-induced apnea [3]; respiration rate monitored, FIG. 19) of the same molecule?
Answer: protects mice from SC-induced apnea

Question: What about the “turnover number Kcat=Vmax/[BChE]T, succinylcholine hydrolysis” value ([4]; [BChE]=4.74 nM) of the same molecule?
Answer: 8.6 ± 0.55 s⁻¹

Question: And the “Vmax, succinylcholine hydrolysis” value ([4]; [BChE]=4.74 nM, ±SEM, nonlinear regression)?
Answer: 2.45 ± 0.16 µM/min

Question: What about the “Kss (dissociation constant of substrate from peripheral binding site)” value ([4]; ±SEM, nonlinear regression) of the same molecule?
Answer: 2.0 ± 0.3 mM

Question: And the Km ([4]; ±SEM, nonlinear regression, read-out: KM, succinylcholine hydrolysis)?
Answer: 57 ± 7 µM

Question: And the “b (substrate activation factor)” value ([4]; ±SEM, substrate activation when b>1)?
Answer: 2.9±0.1

Question: And the heart rate (SC-induced apnea [5]; [6])?
Answer: at baseline

Question: What about the spontaneous respirations (SC-induced apnea [5]; [6]) of the same molecule?
Answer: return of spontaneous respirations

Question: What about the venous oxygenation (SC-induced apnea [5]; [6]) of the same molecule?
Answer: 49%

Question: And the heart rate response (SC-induced apnea [5]; 0.334 mg/kg SC i.v., 48 U BChE at 1 min, 5 min post SC injection)?
Answer: post-anoxic tachycardia

Question: What about the “time by which all vital signs had returned to baseline” value (SC-induced apnea [5]; 0.334 mg/kg SC i.v., 48 U BChE at 1 min, time post SC injection) of the same molecule?
Answer: ≤ 7 min

Question: What about the “protection from high-dose SC-induced apnea” value (SC-induced apnea [5]; high-dose SC, FIG. 21) of the same molecule?
Answer: fully protects

Question: What about the “return of normal vital signs” value (SC-induced apnea [5]; sublethal doses of SC, FIG. 20) of the same molecule?
Answer: promotes return of normal vital signs
